Measurements from patent US9968687B2, “Anti-DLL3 antibody drug conjugates” (AbbVie Stemcentrx LLC, priority 2013, dated 2018).

target: T1, murine DLL3 (Mus musculus, UniProt O88516); assay: Flow cytometry on 293 cells over-expressing murine DLL3; type: binding; conditions: not given
T1 construct: expressed in transfected cells; host or cells: 293 (HEK-293T) cells
T1 sequence (O88516 33-585 isoform O88516-2 limits assumed): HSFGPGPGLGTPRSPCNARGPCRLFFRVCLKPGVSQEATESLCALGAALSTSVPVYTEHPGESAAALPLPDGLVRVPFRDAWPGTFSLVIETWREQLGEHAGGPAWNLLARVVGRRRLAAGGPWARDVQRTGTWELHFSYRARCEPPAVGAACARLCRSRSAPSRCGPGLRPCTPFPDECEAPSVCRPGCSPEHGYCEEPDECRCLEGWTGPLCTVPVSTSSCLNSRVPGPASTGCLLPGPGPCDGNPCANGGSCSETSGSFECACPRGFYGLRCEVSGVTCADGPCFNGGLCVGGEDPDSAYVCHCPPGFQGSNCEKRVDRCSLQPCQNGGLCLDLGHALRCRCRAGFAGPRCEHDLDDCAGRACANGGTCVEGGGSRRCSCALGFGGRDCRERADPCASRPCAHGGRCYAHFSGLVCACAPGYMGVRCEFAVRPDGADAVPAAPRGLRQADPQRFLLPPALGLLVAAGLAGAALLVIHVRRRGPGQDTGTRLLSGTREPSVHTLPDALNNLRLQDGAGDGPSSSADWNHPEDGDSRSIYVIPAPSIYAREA
Method: In addition to evaluating the exemplary modulators as set forth above, flow cytometry was performed in order to confirm that selected SC16 antibody modulators can immunospecifically associate with human DLL3 and to determine whether the same antibodies cross-react with cynomolgus, rat and/or murine DLL3. More particularly the exemplary murine antibodies were analyzed by flow cytometry using a FACSCanto II and 293 cells over-expressing murine, rat, cynomolgus or human DLL3. In some cases, exemplary murine modulators were analyzed by flow cytometry using a FACSCanto II and yeast cells displaying cynomolgus DLL3 using the methods described by Cochran et al. (J Immunol Methods. 287 (1-2):147-158 (2004).
Such results are not unexpected given that murine DLL3 is approximately 83% homologous with isoform 2 of human DLL3. It will be appreciated that this cross-reactivity may be advantageously exploited in the context of the instant invention through the use of animal models in drug discovery and development.

| Molecule | cross-reactivity with murine DLL3 |
| --- | --- |
| SC16.13: murine anti-DLL3 monoclonal antibody, sequences in FIGS. 3A and 3B (antibody, V domains shown) VL: QIVLTQSPALVSASPGEKVTMTCSASSSVSYMYWYQQKPRSSPKPWIYLTSNLASGVPARFSGSGSGTSYSLTISSMEAEDAATYYCQQWRSNPFTFGSGTKLEIK VH: QVTLKESGPGILQPSQTLSLTCSFSGFSLSTSGMGVGWIRQPSGKGLEWLAHIWWDDVKRYNPALKSRLTISKDTSSSQVFLKIASVDTADTATYYCARIVSFDNDVVSAMDYWGQGTSVTVSS | did not appreciably associate with murine DLL3 |
| SC16.65: murine anti-DLL3 monoclonal antibody, sequences in FIGS. 3A and 3B (antibody, V domains shown) VL: QIVLTQSPALMSASPGEKVTMTCSVTSSVSYMYWYQQKPRSSPKPWIYLTSNLASGVPARFSGSGSGTSYSLTISSVEAEDAATYYCQQWRNNPFTFGSGTKVEIK VH: QVTLKESGPGILQPSQTLSLTCSFSGFSLSTSGMGVGWIRQPSGKGLEWLALIWWDDVKRYNPALKSRLTISKDASSSQVFLKIASVDTADTATYYCARIASYDYDVVYAMDYWGQGTSVSVSS | did not appreciably associate with murine DLL3 |
| SC16.8: murine anti-DLL3 monoclonal antibody, sequences in FIGS. 3A and 3B (antibody, V domains shown) VL: EIQMTQSPSSMSASLGDRITITCQATQDIVKNLNWYQQKPGKPPSFLIYYAIELAEGVPSRFSGSGSGSDYSLTISNLESEDFADYYCLQFYEFPFTFGAGTKLELK VH: QAQLQQSGAELVRPGTSVKVSCKASGYAFTNYLIEWVKQRPGQGLEWIGVINPGTGGTNYNENFKGKATLTADKSSSTAYMQLSSLTSDDSAVYFCARSPYDYHEGAMDYWGQGTSVTVSS | cross-react with murine DLL3 to a greater or lesser extent |
| SC16.15: murine anti-DLL3 monoclonal antibody, sequences in FIGS. 3A and 3B (antibody, V domains shown) VL: DIQMTQSPASLAASVGETVAITCRASENIYYNLAWYQQKQGKSPQLLIYTANSLEDGVPSRFSGSGSGTQYSLKINSMQPEDSATYFCKQAYDVPPTFGGGTKLEIK VH: QVQLQQSGAELAKPGASVKMSCKASGYTFTRYWIHWIKQRPGQGLEWIGYINPTTVYTEFNQNFKDKATLTADKSSTTASMQLSSLTSEDSAVYYCARGGSNFFDYWGQGTTLTVSS | cross-react with murine DLL3 to a greater or lesser extent |
| SC16.4: murine anti-DLL3 monoclonal antibody; VL/VH SEQ ID NOS: 25 and 27 (antibody, listed as Mus musculus, V domains shown) VH: QIQLVQSGPELKKPGETVKISCKASGYTFTDYSMHWVKQAPGKGLKWMGWINTETGEPGYADDFKGRFAFSLETSASTAYLQINNLKNEDTATYFCARYDGYAMDYWGQGTSVTVSS VL: DIQMTQTTSSLSASLGDRVTISCRASQDISNYLNWYQQKPDGTVKLLIYYTSRLHSGVPSRFSGSGSGTDYSLTISNLELEDIATYFCQQGDMLPWTFGGGTKLEIK | cross-react with murine DLL3 to a greater or lesser extent |
| SC16.10: murine anti-DLL3 monoclonal antibody, sequences in FIGS. 3A and 3B (antibody, V domains shown) VL: QIVLTQSPAIMSASLGERVTMTCTASSSVSSSYLHWYQQKPGSSPKLWIYSTSNLASGVPTRFSGSGSGTSYSLTISSMEAEDAATYYCHQYHRSPFTFGSGTKLEIK VH: QVTLKESGPGILQSSQTLSLTCSFSGFSLSTSGMGVGWIRQPSGKGLEWLAHIWWDDVKRYNPVLKSRLTISKDTSSSQVFLKIASVDTADTATYYCARLVDDLYYFDYWGQGTTLTVSS | did not appreciably associate with murine DLL3 |
| SC16.34: murine anti-DLL3 monoclonal antibody, sequences in FIGS. 3A and 3B (antibody, V domains shown) VL: SIVMTQTPKFLLVSAGDRVTITCKASQSVSNDVAWYQQKPGQSPKLLIYYASNRYSGVPDRFTGSGYGTDFTFTISTVQAEDLAVYFCQQDYSSPWTFGGGTKLEIK VH: QIQLVQSGPELKRPGETVKISCKASGYTFTNYGMNWVKQAPGKGLKWMGWINTYTGDPTYADDFKGRFAFSLETSASTAYLQINNLKNEDTATYFCARIGGNSPSDYWGQGTSLTVSS | cross-react with murine DLL3 to a greater or lesser extent |
| SC16.56: murine anti-DLL3 monoclonal antibody, sequences in FIGS. 3A and 3B (antibody, V domains shown) VL: SIVMTQTPKFLLVSAGDRVTITCKASQSVSNDVVWYQQKPGQSPKLLIYYASNRYTGVPDRFAGSGYGTDFSFTISTVQAEDLAVYFCQQDYTSPWTFGGGTKLEIR VH: QIQLVQSGPELKKPGETVKISCKASGYTFTNYGMNWVKQAPGKGLKWMAWINTYTGEPTYADDFKGRFAFSLETSASTASLQIINLKNEDTATYFCARIGDSSPSDYWGQGTTLTVSS | cross-react with murine DLL3 to a greater or lesser extent |
| SC16.25: murine anti-DLL3 monoclonal antibody, sequences in FIGS. 3A and 3B (antibody, V domains shown) VL: QIVLTQSPAIMSASPGEKVTMTCSASSSVSYMHWYQQKSGTSPKRWIYDSSKLASGVPARFSGSGSGTSYSLTISSMEAEDAATYYCQQWSSNPLTFGAGTKLELK VH: QVTLKESGPGILQPSQTLSLTCSFSGFSLSTSGMGVGWIRQPSGEGLEWLTDIWWDDNKYYNPSLKSRLTISKDTSSNQVFLNITSVDTADTATYYCARRVNYYYDPYYAMDYWGQGTSVTVSS | did not appreciably associate with murine DLL3 |

target: T2, human DLL3 antigen (Homo sapiens, UniProt Q9NYJ7); assay: Surface plasmon resonance (Biacore 2000), humanized versus chimeric constructs; conditions: concentration series of 25 and 12.5 nM human DLL3 antigen, 1:1 Langmuir binding model, estimated, read-out: KD of antibody binding to human DLL3 antigen
T2 sequence (Q9NYJ7 27-618): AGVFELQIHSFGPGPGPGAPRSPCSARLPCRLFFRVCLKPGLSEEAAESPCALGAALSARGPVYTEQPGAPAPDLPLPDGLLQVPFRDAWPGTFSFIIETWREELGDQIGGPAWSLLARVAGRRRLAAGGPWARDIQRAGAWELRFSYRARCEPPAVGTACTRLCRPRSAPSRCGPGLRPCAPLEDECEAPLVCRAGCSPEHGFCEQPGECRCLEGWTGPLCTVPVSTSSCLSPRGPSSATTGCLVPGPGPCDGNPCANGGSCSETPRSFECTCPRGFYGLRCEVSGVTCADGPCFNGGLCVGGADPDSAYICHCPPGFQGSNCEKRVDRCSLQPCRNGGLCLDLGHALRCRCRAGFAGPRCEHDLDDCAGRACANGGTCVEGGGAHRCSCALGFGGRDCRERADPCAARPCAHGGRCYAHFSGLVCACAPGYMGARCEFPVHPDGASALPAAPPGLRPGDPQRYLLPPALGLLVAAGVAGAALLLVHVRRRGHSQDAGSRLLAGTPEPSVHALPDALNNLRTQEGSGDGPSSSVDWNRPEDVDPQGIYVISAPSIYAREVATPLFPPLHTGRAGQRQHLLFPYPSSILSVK
Method: Besides the aforementioned assays, humanized constructs hSC16.13, hSC16.15, hSC16.25, hSC16.34 and hSC16.56 from Example 4 were analyzed to determine if the CDR grafting process had appreciably altered their binding characteristics. In this respect the humanized constructs (CDR grafted) were compared with “traditional” chimeric antibodies comprising the murine parent (or donor) heavy and light chain variable domains and a human constant region substantially equivalent to that used in the humanized constructs. With these constructs surface plasmon resonance (SPR) was conducted using a Biacore 2000 (GE Healthcare) to identify any subtle changes in rate constants brought about by the humanization process.
Based on a concentration series of 25 and 12.5 nM of human DLL3 antigen and using a 1:1 Langmuir binding model, the KD of the SC16.15 antibody binding to human DLL3 antigen was estimated to be 0.2 nM.

| Molecule | Kd [nM] |
| --- | --- |
| SC16.15: murine anti-DLL3 monoclonal antibody, sequences in FIGS. 3A and 3B (antibody, V domains shown) VL: DIQMTQSPASLAASVGETVAITCRASENIYYNLAWYQQKQGKSPQLLIYTANSLEDGVPSRFSGSGSGTQYSLKINSMQPEDSATYFCKQAYDVPPTFGGGTKLEIK VH: QVQLQQSGAELAKPGASVKMSCKASGYTFTRYWIHWIKQRPGQGLEWIGYINPTTVYTEFNQNFKDKATLTADKSSTTASMQLSSLTSEDSAVYYCARGGSNFFDYWGQGTTLTVSS | ~0.2 |
